Residue numbers refer to the chain shown, from its start.
B1: MHPD1-A-45 H Fc (Fc fusion)
chain: QVQLVESGGGLVQPGGSLRLSCATSHLRRSIYAMGWFRQAPGKGLEFVAGIGWAYATTYYADSVKGRFTISRDNTKNTLYLQMNSLRAEDTAVYYCAADLDHSGFDYWGQGTLVTVSS
notes: not shown: Fc
B2: MHPD1-A-46 H Fc (Fc fusion, not shown: a dimerising Fc or GST; small tags and cut ends)
VHH: B1 chain with H26G, L27S, R28K, R29G, H102R
B3: MHPD1-A-19 H Fc (Fc fusion, not shown: a dimerising Fc or GST; small tags and cut ends)
VHH: B1 chain with H26G, L27S, R28E, R29V, H102R, S103R
B4: MHPD1-A-27 H Fc (Fc fusion)
VHH: B1 chain with H26K, L27S
notes: not shown: Fc region
B5: MHPD1-A-15 H Fc (Fc fusion)
chain: B1 chain with H26G, A56S
notes: not shown: Fc
B6: MHPD1-A-42 H Fc (Fc fusion)
chain: B1 chain with H26G, L27S, R29Q, S30T, T58Q
notes: not shown: Fc
B7: MHPD1-A-18 H Fc (Fc fusion, not shown: a dimerising Fc or GST; small tags and cut ends)
VHH: B1 chain with H26G, L27S, R29S, I51L, S103L
B8: MHPD1-A-21 H Fc (Fc fusion, not shown: a dimerising Fc or GST; small tags and cut ends)
VHH: B1 chain with H26G, L27S, T58S
B9: MHPD1-A-31 H Fc (Fc fusion)
VHH: B1 chain with H26G, L27S, I51L, S103H
notes: not shown: Fc region
B10: MHPD1-A-33 H Fc (Fc fusion)
VHH: B1 chain with H26G, L27S, R29S, S30Q
notes: not shown: Fc region
B11: MHPD1-A-25 H Fc (Fc fusion)
chain: B1 chain with H26G, L27V, H102R, S103H
notes: not shown: Fc
B12: MHPD1-A-24 H Fc (Fc fusion)
chain: B1 chain with H26G, L27S, R29H, H102R, S103A
notes: not shown: Fc
B13: MHPD1-A-39 H Fc (Fc fusion)
chain: B1 chain with H26G, L27S, T58E
notes: not shown: Fc
B14: MHPD1-A-16 H Fc (Fc fusion, not shown: a dimerising Fc or GST; small tags and cut ends)
VHH: B1 chain with H26G, L27S, R29V
B15: MHPD1-A-22 H Fc (Fc fusion)
VHH: B1 chain with H26G, L27S, H102R, S103G
notes: not shown: Fc region
B16: MHPD1-A-29 H Fc (Fc fusion)
VHH: B1 chain with H26G, L27S, R28G, R29G
notes: not shown: Fc region
B17: MHPD1-A-49 H Fc (Fc fusion, not shown: a dimerising Fc or GST; small tags and cut ends)
VHH: B1 chain with H26G, L27S, H102R, S103V
B18: MHPD1-A-37 H Fc (Fc fusion, not shown: a dimerising Fc or GST; small tags and cut ends)
VHH: B1 chain with H26G, L27A, H102R, S103T
B19: MHPD1-A-43 H Fc (Fc fusion, not shown: a dimerising Fc or GST; small tags and cut ends)
VHH: B1 chain with H26G, L27S, H102R, S103A
B20: MHPD1-A-23 H Fc (Fc fusion)
VHH: B1 chain with H26G, L27T
notes: not shown: Fc region
B21: MHPD1-A-17 H Fc (Fc fusion, not shown: a dimerising Fc or GST; small tags and cut ends)
VHH: B1 chain with H26G, L27S, R28I, R29S
B22: MHPD1-A-28 H Fc (Fc fusion)
VHH: B1 chain with H26K, T58Q
notes: not shown: Fc region
B23: MHPD1-A-35 H Fc (Fc fusion)
VHH: B1 chain with H26A, L27P, A56G
notes: not shown: Fc region
B24: MHPD1-A-44 H Fc (Fc fusion)
chain: B1 chain with H26G, L27S, R29T, S30R, T58E
notes: not shown: Fc
B25: MHPD1-A-20 H Fc (Fc fusion, not shown: a dimerising Fc or GST; small tags and cut ends)
VHH: B1 chain with H26G, L27S, R29K
B26: MHPD1-A-30 H Fc (Fc fusion)
chain: B1 chain with H26G, L27V, T58Q, L100I
notes: not shown: Fc
B27: MHPD1-A-38 H Fc (Fc fusion, not shown: a dimerising Fc or GST; small tags and cut ends)
VHH: B1 chain with H26G, L27N, H102R, S103R
B28: MHPD1-A-32 H Fc (Fc fusion)
chain: B1 chain with H26K, L27N
notes: not shown: Fc
B29: MHPD1-A-2 H Fc (Fc fusion, not shown: a dimerising Fc or GST; small tags and cut ends)
VHH: B1 chain with T24A, H26G, L27R, R28F, R29P, A54R
B30: MHPD1-A-6 H Fc (Fc fusion, not shown: a dimerising Fc or GST; small tags and cut ends)
VHH: B1 chain with T24A, H26G, L27R, R29P, A54N
B31: MHPD1-A-5 H Fc (Fc fusion, not shown: a dimerising Fc or GST; small tags and cut ends)
VHH: B1 chain with T24A, H26G, L27S, R28S, R29L
B32: MHPD1-A-9 H Fc (Fc fusion, not shown: a dimerising Fc or GST; small tags and cut ends)
VHH: B1 chain with T24A, H26G, L27S, R28G, R29H, A54S
B33: MHPD1-A-14 H Fc (Fc fusion, not shown: a dimerising Fc or GST; small tags and cut ends)
VHH: B1 chain with T24A, H26S, L27H, R29P, A54R
B34: MHPD1-A-12 H Fc (Fc fusion, not shown: a dimerising Fc or GST; small tags and cut ends)
VHH: B1 chain with T24A, H26G, L27S, R28D, R29Y, S30A, Y55F
B35: MHPD1-A-13 H Fc (Fc fusion)
chain: B1 chain with T24A, L27A, R28D, R29P, A54N
notes: not shown: Fc
B36: MHPD1-A-1 H Fc (Fc fusion, not shown: a dimerising Fc or GST; small tags and cut ends)
VHH: B1 chain with T24A, H26G, L27S, R28D, R29P, Y55W, H102R
B37: MHPD1-A-10 H Fc (Fc fusion, not shown: a dimerising Fc or GST; small tags and cut ends)
VHH: B1 chain with T24A, H26G, L27S, R28D, R29D, S30R, A54R
B38: MHPD1-A-8 H Fc (Fc fusion)
chain: B1 chain with T24A, H26G, L27G, R29P, Y55F
notes: not shown: Fc
B39: MHPD1-A-11 H Fc (Fc fusion, not shown: a dimerising Fc or GST; small tags and cut ends)
VHH: B1 chain with T24A, H26G, L27S, R28Q, R29L, A54R, Y55F

Target: T1, recombinant human PD-1-his protein (human, UniProt Q15116 25-167)
T1 construct: also called hPD-1-his; not shown: his tag
T1 sequence (Q15116 25-167 limits assumed): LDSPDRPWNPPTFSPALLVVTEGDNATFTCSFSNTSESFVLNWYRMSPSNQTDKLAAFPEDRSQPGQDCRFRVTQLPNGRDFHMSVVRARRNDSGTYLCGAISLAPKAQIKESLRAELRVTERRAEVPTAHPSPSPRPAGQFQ
Assay: ELISA; PD-1-his coated 2 µg/mL, anti-human IgG Fc-HRP
Procedure: (§1) The plates were washed three times with PBST. 5% PBS-Milk and incubated at room temperature for 2 h. The plates were washed three times with PBST. All the nanobody-Fc fusion proteins were subject to 3-folded gradient dilution with an initial concentration of 10 μg/mL, added into each well at 30 μL/well, and incubated at room temperature for 1 hr. The plates were washed three times with PBST. The secondary antibody Goat-Anti-Human-IgG-Fc-HRP was diluted at 1:8000, added into each well at 30 μL/well, and incubated at room temperature for 50 min. The plates were washed nine times with PBST. TMB was added into each well at 30 μL/well and developed at room temperature in dark for 1 min to 5 min. 2 M hydrochloric acid was added at 30 μL/well to stop the reaction. The OD450 absorbance value was read by a microplate reader. Graphpad Prism software was used to fit the curve and calculate EC₅₀ values.

Row | Binder | EC50 [pM]
1 | B1 | 146
2 | B2 | 252
3 | B3 | 270
4 | B4 | 540
5 | B5 | 134
6 | B6 | 193
7 | B7 | 178
8 | B8 | 179
9 | B9 | 219
10 | B10 | 628
11 | B11 | 211
12 | B12 | 177
13 | B13 | 158
14 | B14 | 187
15 | B15 | 242
16 | B16 | 2180
17 | B17 | 171
18 | B18 | 141
19 | B19 | 387
20 | B20 | 152
21 | B21 | 196
22 | B22 | 242
23 | B23 | 824
24 | B24 | 198
25 | B25 | 175
26 | B26 | 166
27 | B27 | 421
28 | B28 | 156

Target: T2, recombinant human PD-1-Fc-Biotin (human, UniProt Q15116 25-167, biotin (site not stated))
T2 construct: also called antigen protein human PD-1; not shown: Fc
T2 sequence (Q15116 25-167 limits assumed): as above
Assay: competitive ELISA; PD-L1-mFc coated, 0.5 µg/mL PD-1-Fc-Biotin, streptavidin-HRP
Procedure: (§2) The plates were washed three times with PBST. 5% PBS-Milk was added and incubated at room temperature for 1 hr. All the nanobody-Fc fusion proteins were subject to 3-fold gradient dilutions with an initial concentration of 10 μg/mL, added into each well at 30 μL/well, and incubated at room temperature for 1 hr. […] The well plates were washed with PBST between incubations.

Row | Binder | IC50 [pM]
29 | B29 | 419
30 | B30 | 407
31 | B31 | 306
32 | B32 | 256
33 | B33 | 852
34 | B34 | 293
35 | B35 | 395
36 | B36 | 572
37 | B37 | 287
38 | B38 | 323
39 | B39 | 365

Target: T2, recombinant human PD-1-Fc-Biotin
Assay: as above
Remark: another data set of the same source
Procedure: as §2, with “The” for “The well”

Row | Binder | IC50 [pM]
40 | B1 | 944
41 | B5 | 517
42 | B8 | 1610
43 | B13 | 850
44 | B17 | 1260
45 | B18 | 1540
46 | B20 | 1200
47 | B25 | 1210
48 | B26 | 1080
49 | B28 | 1720

Target: T1, recombinant human PD-1-his protein
Assay: ELISA; PD-1-his coated 2 µg/mL, anti-human IgG Fc-HRP
Remark: another data set of the same source
Procedure: as §1, with “PBS-Milk was added” for “PBS-Milk”, “3-fold” for “3-folded”, “dilutions” for “dilution”, “calculate the” for “calculate”, “value (see Table 7).” for “values.”

Row | Binder | EC50 [pM]
50 | B29 | 553
51 | B30 | 160
52 | B31 | 157
53 | B32 | 163
54 | B33 | 1220
55 | B34 | 311
56 | B35 | 140
57 | B36 | 613
58 | B37 | 200
59 | B38 | 169
60 | B39 | 222

Reference: patent US20240309093A1 (MINGHUI PHARMACEUTICAL HANGZHOU, published 2024)
